Earlier results in patent US20220259272A1, “PHOTOACTIVE COMPOSITIONS FOR T[…] DELIVERY” (The University of North Carolina at Chapel Hill, priority 2019, published 2022).

What was measured:
[1] = in vivo
[2] = 1 mg/kg, up to 100 mg
[3] = in vivo; remark: listed apart in the source

Substance | circulatory half-life [1] [min] | catastrophic intracerebral hemorrhage, share of patients [2] [%] | circulatory lifetime [3] [min]
TF: protein that promotes blood clotting in the cascade activating thrombin | < 1 |  | 
tPA: enzyme that activates plasminogen to generate plasmin, which dissolves the clot |  | ~10 | 5
